Experimental data published in a protein production outcome set (Wang et al. 2014).

Test: label from the status in PepcDB records
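Note: failed if final PepcDB status was selected cloned or expressed and not failed if soluble or beyond.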

Sequence | protein production
MRMPDRTDVCVLLPTLNESETIGDVVGGFYDHGFEHVLVVDGDSTDGTRAIAREHGARVITQSGSGKGQAVREGVEQIDQPYVLMADGDGTYRPEDADKMLTPLFAGRAEHVIGDRFADMEAGAMTRLNAVGNRLINRLFATIHGRDLQDILSGYRAFTTQSFERSKLSADGFGIETELAVECVRRGVSTAVVPIRYEARPGGSETNLHPLKDGGRILLTLYRLARMNNPIFYFGSVAAVGTAGGVALGAFVGYRYLTAGVSHEVLALLAAFLVLLSVQLLMFGVLSDIIVSIHREQTRRLDDIADQLEEQNDE | failed
MAAEHGLILDFTTVLGASALGGYLANRLRQPVLLGYLVTGLALGPYGLKLLSDVPRIQSLASIGVAFLLFALGVEFSLTELRRVKNIAINGSLLQIGLTTALVAFLTITLGWVDNLTQGIFLGVVLSLSSTAVVLKTLGERGETNTLHGQVMLAILIAQDLALGLILAFLPVLNQPERLVWALGIALLKVLLFLALAIALGRWIVPKLISNVAATESTELFVLTVISLCLSVALVTAKLGLSIEMGAFVAGLMVSEIDHADHALAKVLPLRDTFACLFFASIGMLIDPIALMQNLGLVLGLVTLVMLGKAIVVMPIILKFGYSLKTTILTSLGINQIGEFSFVLALAGLQLQLIPEKTYILLLETTAITLVLTPISLNIAPQLIERLTQIPFFAQSLRQFTEPNILSIPETISGHVVVAGYGRVGQVIVNILLNQGYVVLVIENSEAAIQRLRMQRIPYIFGDADSELVLEKIHLETAKALAIALPDPASSRLLLKRALAIAPKLDVIARSHHDNEIDLLTQMGAKEVVQPEFEAALELSAHLLSTLGEAKSQIDTVISDIRTDRYRSIRPRR | failed
KDPLLNSLIYVSRYYGLANSPEALVNGLPLSDGKLTPFLLPRAAERAGLVAKENRAELEKISSLILPAILVLKGGDSCVLNSINMETREAEVTTLESGMVPISIPLEDLLEQYTGRYFLVKKQFR | failed
SKCLERFGPFYLLYKDRLSFVNADASELTFHPDTAVLRLKAPHDALISLLGQSPKSILDTTMGLASDSLVMAAVRNRVTALESQEVIFQVVSRGLATYQTDNKQIEKAMRSIKAVKSDSLTFLKSQTDHSFDIIYADPMFSETIKESENLNAIKPLANGSRLTREWLDEAKRVGRERIIIKAHFRDSVFEELGFERQVRP | failed
MLVFEIIIGLLLAGAALTALSRRIGTPYPALVALAGAALALVPGTPTLVLEPDLALTLFVAPVLLDAAYDASQRDLRASWRTVAGLAVGAVALTVVVVAVVARALVPGMPWAVAVALGAIVAPPDAAAATAVLGQLRPPHRLMVILEGESLFNDASALLVYRLAVGAALAGALSPVEVLPPLLASTAGSVALGYGLSRVIPPLIARIEDVPIAVVVQFCGTFAVWIVAERLHLSGILTVVVFAMASAQRAAGQMAARVRIPSYAVWGFAVFVLNVLAFILVGFQLKAILGRIDAPTLLRYAGVAGAVCLAAVVARIAWVSGTAAVSRLRCRPTEDGSKARPDTIGLSPRGAAVVGWCGMRGIVTLAAALALPTGARGAPPFPHRDLVVFTAFAVVLGTLVLQGMTLRPLMRALRLEGDRSVDREVRLARVETLRAGLSATDGAAGDPLSDVLRRRYELLLRGAEAELRGGAAPQAPPAGGDVDPRAGAAVARRAVEAERGRLLALRSDGTIGDAAFQRVEEELDLEELSLRRLARDGAREAS | failed
MKKIAFGCDHVGFILKHEIVAHLVERGVEVIDKGTWSSERTDYPHYASQVALAVAGGEVDGGILICGTGVGISIAANKFAGIRAVVCSEPYSAQLSRQHNDTNVLAFGSRVVGLELAKMIVDAWLGAQYEGGRHQQRVEAITAIEQRRN | not failed
MATPTEHEDLSEQEVTEDEFKTPKIRETPEDIKLEAIVNTIAFHPKQDILAAGDIDGDIYLFSYSCTEGENKELWSSGHHLKSCRKVLFSSDGQKLFSVSKDKAIHIMDVEAGKLETRIPKAHKVPINAMLLIDENIFATGDDEGTLKVWDMRKGTSFMDLKHHEDYISDITIDQAKRTLLTSSGDGTLGVFNIKRRRFELLSEIQNGDLTSVSIMKRGRKVVCGSGEGTIYIFNWNGFGATSDRFAVQAESVDCIVPITDSILCAASTDGVIRAINILPNRVVGSIGQHVGEAIEEIARCRDTHFLASCAHDELIKFWDISSLPDEKVNDYRRRKKKDRRLKALSNKAFDTGQNFFAGLLDTTEENGKEGENDEDDDDEDSDSGSD | not failed
MKSHQLLKAPFQHGFLFSRPLVMYCFKTCHDSAWKHYIRFLKYRHEKLYEEALSEIDNAIKVCNSIAFRYFLLSEKLTVLGYMGKHEEGIKLYSHLRGRMRNVSPNLRSIFIGNLLNYCSMYLHNAFECLGRIKPEAHHLEKSSYAFILIGKARYMARTGNVKEAIESYEKALKILQEIPHPSGIIACLNDMAWYTKEKDPEKAKDMAEEALYWNGYFFDAPRFYALDTLFEVQRTTSDPAIVETARLIEIASEGLKDSASDLLKKDQRLFLRLNNSLYRNTKSLQRFLRRNTTSIKHLSEITGVARNRLSDILNGKTQKIRGETLRKIAKAFEKSNILSFPPPLLSEWVKLRIEENFSAALREIKTKRLEERQILFLSTYTALIDRKFLSRKERLKKAYTLLEDIESFADFMAKDHRTMEFVVSMVKAHPFVEGRKEAVKRALARMKRKRLERFVLRYIEMKESDRKLLDRFLRNYGRYDGVRFGIRLKGPEVVREFAKKYSLKVQPLFAAFWCEEDGRVRRRLERVLKHMVLN | failed
MIEIKNVNKVFYQGSKEILALKDINLHIAKGTIFGVIGSSGAGKSTLIRCVNMLEAPSSGSIIVDGVDLTTLSKKQLVETRRNIGMIFQHFNLLSSRTVFDNVALPLELAGKDKSQITTKVTELLKLVGLADKHESYPSNLSGGQKQRVAIARALASDPSVLLCDEATSALDPATTQSILELLKEINRKLNITILLITHEMEVVKSICHEVAIIGGGELVEKGTVGDIFAHPKTELAHEFIRSTLDLSIPEDYQARLQPNRVEGSYPLVRMEFTGATVDAPLMSQISRKYNIDVSILSSDLDYAGGVKFGMMVAELFGNEQDDSAAIEYLREHNVKVEVLGYVL | not failed
MISKAISAQCRHLHRAAVLVAVMSALAATGCSKKEAPQAPAPSAGTPQAGAPAAMPEGMSGQQQTAMGRAIFNKRCASCHGTDGNGAGSRSGPALDQAQFKYGRTPEAIRESIVKGRPNGMPAFGAAFQEIEIDTLVGYVMGLTKQ | failed
MRNKLLFLALPLLFGLQASAQHTQAFQDTTLTDEQRVEHLLSILTLDEKINLLSTDLGVPRLNIPRCGHYEGLHGLTLGGPAMWGGRQRTEDGKVVPTDCPTTIFPQSYGLGSTWDTDLVQKVAEQAAEEARYYMQTTGNKRHALVMRAPNADLARDPRWGRTEESFGEDAFLTAQLTIASVRGLQGNHPRYWKTASLMKHFLANSNEDGRDSTSSDFDTRLFHEYYAYPFYKGITEGGSRAFMAAYNSWNGIPMSIHPCLEEITRKQWGNNGIICTDGGALKLLIEAHKSFPSFAEGAAAVVKATTGQFLDAYVPYVKEALEKGLLTEVDIDKAIRGNIFVALKLGLLDGDNSRNPYLSIGKNSTETPPFMTAEARRLAREVTAKSVVLLKNKKLLPLDAGKLRKIAVIGPYSDKIVQDWYSGTPPYETTILSGIRNAVKEGTEIIHAEDNRMGQAEKAAAAADVAIVCVGNHPYGTRADWKFSPVPSDGREAVDRKSLMLPDEDLVKLVLKANPNTILVLVSSFPYTINWSQEHVPAIVHITHCSQEQGNGLADVLFGKVNPAGRTVQTWVKDITDLPDIMDYDIRNGRTYMYHQGPVLYPFGYGLSYSDFTYEKIESVKQDKKNIRVTVSVKNTSGRDGEEVVQLYASYPDSKVERPSKQLRAFRRIPIKAGETRKVTLTVPKEELGYWNEGKQMFVVEPGTVKLLIGASSEDIRLEGKIRL | failed
HFPARVKVEPAVDTSRIKVFGPGIEGKDVFREATTDFTVDSRPLTQVGGDHIKAHIANPSGASTECFVTDNADGTYQVEYTPFEKGLHVVEVTYDDVPIPNSPFKVAVTEGCQPS | not failed
MNESAGGRTPVPPAAWVFGLSTLIPFFIASGLFCYGPVAIRKSALLGLLAYSAAMVSYFGGVRTGLEIENPSPRWSVLGISLLFPLAGFGLLLGGLKFEAAWQLSGFLLVFLLQWVWDVTDHEGPSWRPRMRTLMTAGAAISLAFALEQALHM | failed
MGHHHHHHSHMGRCYNNIVIDASIEAVWQQIGNFHDMSWAKGVITSLVKVGPASGTEVGAKRILNDAIHETLVSLDSSNYTFTYSIDDGPDAIAKSAVDNYLGMVNLSESSTGVLVEWSSSFTSDNEKAVTEFCDP | failed
MKATFQVPSITCNHCVDKIEKFVGEIEGVSFIDVSVEKKSVVVEFDAPATQDLIKEALLDAGQEVV | failed
MTGIFLQAFVYLVAAVIAVPLAKRLGLGSVLGYLIAGVVIGPIIGLVGEETTTIQHFAEFGVVMMLFLVGLELEPKMLWAMRNRLMGLGGLQVGGTVAAIMGIALYFEQPWTIALAIGLIFALSSTAIVLQTFSEKGLTKTEGGKNAFSVLLFQDIAVIPMLAFIPLLALPELVEQAQNAVQTAAQHHDDLNLVADLPGWAYGIVITASIAIVVVGGHFLSRPLLKYVASSGLREIFTATALMLVIGIAALMSLVGLSPALGTFLAGVVLANSEFRHELESNIEPFKGLLLGLFFITVGAGINFSVLFGDFWLIMALTIGVMVLKALVLFILALIFRVKGSNRWLFTLSLAQAGEFGFVLLSFSVQNHVIPFELSQTLALVVAISMFLTPGLFILFDRVILPRFETQSNERESDTIEETGTVIIAGIGRFGQIVNRLLVSNGVTTVVLDHQANQVDNMRQIGTRAYFGDATRPDMLHTAGIEHAAALVVAIDNQESSVELVKYVKHTYPKVKIIARAFDRGHGYLLRQAGADVIESETYHSALEMGGHAMKALGIHPFFVEQQKDTYKRVEARKSEMLYQAWEDDSEGERFDNNFRELFIQLEEKMAEEMRKDRHDKLSRSERGWTPPPKGYAENFDGENVQDITPPKEEAI | failed
MKNMDEERKYGLYSLIIGLLCVIGIVMLNGLICYVLYIIAVPSLLYGIGAFIIPKTRRKDAGKLPFRGY | failed
MSNKLLLVFALIGIIVVFSCGLFLPIPIGYRVSMLTAGVIMSVVFSIIIPFDRKHIVRKKGNKIDFTKTKVYFRWNVFDTISVCLALYACICVQVLIFLVPMGFTIQNPYVQFFTNQSQLWVFIAIAYLISRISLTLKGIKEIKNHGADWD | failed
MVMMFIGIDDTDSPNKYCTTYIATLLIEELKGCGYSVDMPKLIRMNPMVKYKTRGNGGVAIHILDELYSKDKEEIKNITISLVEKYTDFECENTNPGIVFLDEAKYKENREKLTNYYKKVLYDIVSVDYAEKFILKVGGEFIKYKLGRGIIGALGAISSTPPYTYELLAYRKKEMWGKKREIDEKSVIEMDKETFPYTFDNYDYENEKILIAPNTPCPVLFGIRGIDAEILLKAMHKIEGEKPERFMIFKTNHGTDVHLRKMNIKDIYPNTGVIVYGRVVEEPRDIEGGHVIFKLSDGTGEIDCMAYEPTKGFRDIIRKLIVGDYIAVYGTVREKPLGINIEKIKILKLEKKFVKDKRCPYCGGTLKAKGKKAGYKCKKCKKTIAYDEIKMIEVERDLKTGFYEVPGSARRHLSKPIQLIDLI | not failed
MARTFRSLRNFNYRVWASGAIVSNIGTWMQRTAQDWLVLTELTHHNATAVGIVMSLQFGPQMLLLPLTGYAADHFNRRKLLFITQTAMGLLALGLGLMTVTGLVRLWHVYVFALLLGCVTAFDAPARQTFVSDLVGEEDLPNAVALNSTSFNGARMIGPAITGLLIASIGTGWVFLINALSFVPVIGALRMLRQHELHLKPPAQRSRGSFLEGFRYVWKRPDLKAALFMLFLIGTFGLNFPIFISTMSVSAFHAGAGQYGLLSSTMAIGSVTGTLLAARRARPRMAILVGAATIFGVGCMFGALMPNAVLFGLTLAVIGASTQTFTTSTNSLVQISTEPAMRGRVIAILLAIALGTTPLGAPVVGWVADRFGPRWALGVGAASGFAAALVGLFYLMRNRNLRFYIETGRLRYSIDKPRQTAFMAAPAASVPNVVMSKAEDE | failed
IDSGLSPSVLMASNSGRRSAPPLNLTGLPGTEKLNEKEKELCQVVRLVPGAYLEYKSALLNECHKQGGLRLAQARALIKIDVNKTRKIYDFLIREGYITKA | not failed
